{"source": "the nanobody polyreactivity screen of Harvey et al. (2022)"}
{"experiment": "yeast display, Sf9 membrane polyspecificity reagent, FACS + sequencing; frameworks hold sequencing errors", "procedure,_shortened": "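After 36–48 hours of galactose induction, yeast (Saccharomyces cerevisiae BJ5465) displaying a synthetic nanobody library were stained at 4 °C for 1 hour with 10% biotinylated, detergent-solubilized Sf9 membrane reagent. Streptavidin microbeads enriched the stained cells before FACS sorting into low and high (top ~1%) gates on anti-HA and streptavidin fluorescence. Each clone's polyreactivity label reflects its gate of origin.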"}
{"sequence": "QVQLVESGGGLVQAGGSLRLSCAASGSTFIGYAMGWYRQAPGKERELVASISWGGGSTYYADSVKGRFTISRDNAKNTVYLQMNSLKPEDTAVYYCATDGRTYIDFYWGQGTQVTVSS", "polyreactivity (PSR sort gate)": "low polyreactivity"}
{"sequence": "QVQLVESGGGLVQAGGSLRLSCAASGSTFIGYAMGWYRQAPGKEWELVAAISWSGGRTYYADSVKGRFTISRDNEKNTVYLQMNSLKPEDTAVYYCAASYYGCSARYDTLGIYEYWGLGTQVTVSS", "polyreactivity (PSR sort gate)": "high polyreactivity"}
{"sequence": "QVQLVESGGGLVQAGGSLRLSCAASGSTFIHNAMGWYRQAPGKERELVAAITSGGSTYYADSVKGRFTISRDNAKNTVYLQMTSLKPEDTAVYYCNAGRGTRFVYIDGMDYWGQGTQVTVSS", "polyreactivity (PSR sort gate)": "high polyreactivity"}
{"sequence": "QVQLVESGGGLVQAGGSLRLSCAASGSTFILNAMGWYRQAPGKERELVATISSSDTSTYYADSVKGRFTISRDNANNTVYLQMNSLKPEDTAVYYCNADYYTTSYLQRVYHYGVEYDYWGQGTQVTVSS", "polyreactivity (PSR sort gate)": "low polyreactivity"}
{"sequence": "QVQLVESGGGLVQAGGSLRLSCAASGSTFILYAMGWYRQAPGKERELVAAISSDGSTYYADSVKGRFTISRDNAKNTVYLQMNSLKPEDTAVYYCAADSDTFYYTGYDYDYWGQGTQVTVSS", "polyreactivity (PSR sort gate)": "low polyreactivity"}
{"sequence": "QVQLVESGGGLVQAGGSLRLSCAASGSTFIPYAMGWYRQAPGKERELVAAIRGGDGSTYYADSVKGRFTISRDNAKNTVYLQMNSLKPEDTAVYYCAADTVITAYFYRFWRYNYWGQGTQVTVSS", "polyreactivity (PSR sort gate)": "low polyreactivity"}
{"sequence": "QVQLVESGGGLVQAGGSLRLSCAASGSTFIRYAMGWYRQAPGKERELVAAISSGGGNTYYADSVKGRFTISRDNAKNTVYLQMDSLKPEDTAVYYCAARYLAYGPTGYLYGYNYWGQGTQVTVSS", "polyreactivity (PSR sort gate)": "high polyreactivity"}
{"sequence": "QVQLVESGGGLVQAGGSLRLSCAASGSTFISNDMGWYRQAPGKEREFVAAITASGGSTYYADSVKGRFTISRDYAKNTVYLQMNSLKPEDTAVYYCARVYTFLDVYFRYGYWGQGTQVTVSS", "polyreactivity (PSR sort gate)": "low polyreactivity"}
{"sequence": "QVQLVESGGGLVQAGGSLRLSCAASGSTFISYAMGWYRQAPGKERELVAAISYRGGSTRYADSVKGRFTISRDNAKNTVYLQMNSLKPEDTAVYYCAAYTRKSHIREYDYWGQGTQVTVSS", "polyreactivity (PSR sort gate)": "high polyreactivity"}
{"sequence": "QVQLVESGGGLVQAGGSLRLSCAASGSTFITYVMGWYRQAPGKERELVAAISRSGGTTYYADSVKGRFTISRDNAKNTVYLQMNCLKPEDTAVYYCAARIGGQVQKTARGSWGQGTQVTVSS", "polyreactivity (PSR sort gate)": "high polyreactivity"}
{"sequence": "QVQLVESGGGLVQAGGSLRLSCAASGSTFIVNALGGYRQAPGHEREFVAAIRWSGGSTYYADSVKGRFTISRDNAKNTVYFQMNSLKPDDTAVYYCNARSYQSARFRGGYWGQGTQVTVSS", "polyreactivity (PSR sort gate)": "high polyreactivity"}
{"sequence": "QVQLVESGGGLVQAGGSLRLSCAASGSTFIVNAMGWYRQAPGKERELVAAITGGGGSTYYADSVKGRFTISRDNAKNTVYLQMNSLKPEDTAVDYCAARIQYAFGADYYWGQGTQVTVSS", "polyreactivity (PSR sort gate)": "low polyreactivity"}
{"sequence": "QVQLVESGGGLVQAGGSLRLSCAASGSTFIVYAMGWYRQAPGKERELVAAIRGRGGSTYYADSVKGRFTISRDNAKNTVYLQMNSLKPEDTAVYYCAARGISPQEMYYWGQGTQVTVSS", "polyreactivity (PSR sort gate)": "high polyreactivity"}
{"sequence": "QVQLVESGGGLVQAGGSLRLSCAASGSTFIWYDMGWYRQAPGKERELVATIDGNDGSTYYADSVKGRFTISRDNAKNTVYLQMNSLKPEDTAVYYCAKRSTGRLQSYNYWGQGTQVTVSS", "polyreactivity (PSR sort gate)": "low polyreactivity"}
{"sequence": "QVQLVESGGGLVQAGGSLRLSCAASGSTFIYNTMGSYRQAPGKERELVAAISGSGGRTYYADSVKGRFTISRDNAKNTVYLQMNSLKPEDTAVYYCAARYYTKLYWGQGTQVTVSS", "polyreactivity (PSR sort gate)": "high polyreactivity"}
{"sequence": "QVQLVESGGGLVQAGGSLRLSCAASGSTFIYYAMGWYRQAPGKERELVAGISIRGGSTYADSVKGRFTISRDNAKNTVYLQKNSLKPEDTAVYFCNAYKRIKANGYAIRYYYWGQGTQVTVSS", "polyreactivity (PSR sort gate)": "high polyreactivity"}
{"sequence": "QVQLVESGGGLVQAGGSLRLSCAASGSTFKAYAMGWYRQAPGKERELVAAITKSGGRTYYADSVKGRFTLSRDNAKNTVYLQMNSLKPEDTAVYYCNAAAYVWKSKQRLYVITYDYWGQGTQVTVSS", "polyreactivity (PSR sort gate)": "high polyreactivity"}
{"sequence": "QVQLVESGGGLVQAGGSLRLSCAASGSTFKAYAMGWYRQAPGKERELVAAITYNGGSTYYADSVKGRFTISRDNEKNTVYLQMNSLKPEDTAVYYCAKRETGRRDPRRSTQYRYEYWGQGTQVTVSS", "polyreactivity (PSR sort gate)": "low polyreactivity"}
{"sequence": "QVQLVESGGGLVQAGGSLRLSCAASGSTFKAYVMGWYRQEPAKERELVAVISRSGGTTYYADSVKGRFTISRDNAKNTVYLQMNSLKPEDTAVYYCAAQWRYQYPESLESYYWGQGTQGTVSS", "polyreactivity (PSR sort gate)": "high polyreactivity"}
{"sequence": "QVQLVESGGGLVQAGGSLRLSCAASGSTFKEYTMGWYRQAPAKERELVAASSKSGDSTYYADSVKGRFTISRDNAKNTVYLQMNSLKPEDTAVYYCNKPTWYTIYDYWGQGTQVTVSS", "polyreactivity (PSR sort gate)": "low polyreactivity"}
{"sequence": "QVQLVESGGGLVQAGGSLRLSCAASGSTFKFNAMGWYRQAPGKEREFVAAITSSGDSTYYADSVKGRFTISRDNAKNTVYLQMNCLKPEDTAVYYCAAEFESSFALGFYYWGQGTEVTVSS", "polyreactivity (PSR sort gate)": "high polyreactivity"}
{"sequence": "QVQLVESGGGLVQAGGSLRLSCAASGSTFKFYTMGWYRQAPGKERELVATIDWSGGSTYYADSVKGRFTISRDNAKNTVYLQMNSLKPEDTAVYYCAAYSRSRNTRLGKYYYWGQGTQVTVSS", "polyreactivity (PSR sort gate)": "high polyreactivity"}
{"sequence": "QVQLVESGGGLVQAGGSLRLSCAASGSTFKFYTMGWYRQAPGKERELVATIDWSGGSTYYADSVKGRFTISRDNAKNTVYLQMNSLKPEDTAVYYCAAYSRSRTTRLGKYYYWGQGTQVTVSS", "polyreactivity (PSR sort gate)": "high polyreactivity"}
{"sequence": "QVQLVESGGGLVQAGGSLRLSCAASGSTFKGNAMGWYRQAPGKERELVAAINRSGTSTYYADSVKGRFTISRDNAKNTVYLQMNSLKPEDTAVYYCAADKAPYSTEGDSWGQGTQVTVSS", "polyreactivity (PSR sort gate)": "high polyreactivity"}
{"sequence": "QVQLVESGGGLVQAGGSLRLSCAASGSTFKIYAMGWYRQAPGKERELVARITGRGGSTYYADSVKGRFTISRDNAKNTVYLQMNSLKPEDTAVYYCAARVYTYYYDLHKRYYWGQGTQVTVSS", "polyreactivity (PSR sort gate)": "high polyreactivity"}
{"sequence": "QVQLVESGGGLVQAGGSLRLSCAASGSTFKKYAMGWYRQAPGKERELVAAITGSGGRTYYADSVKGRFTISRDTAKNTVYLQMNSLKPEDTAVYYCANLNNYGYDYWGQGTQVTVSS", "polyreactivity (PSR sort gate)": "high polyreactivity"}
{"sequence": "QVQLVESGGGLVQAGGSLRLSCAASGSTFKNNAMGWYRQATGKEREFVAGITRRGTSTYYADSVKGRFTISRDNAKNTVYLQMNSLKPEDTAVYYCAVGVYDYTGTYGYWGQGTQVTVSS", "polyreactivity (PSR sort gate)": "high polyreactivity"}
{"sequence": "QVQLVESGGGLVQAGGSLRLSCAASGSTFKPNAMGWSRQAPGKERELVAAINGSGGDTYYADSVKGRFTISRDYANNTFYLQMNSLKPEDTAVYYCAAQWGYYNYWYGYWGQGTQVTVSS", "polyreactivity (PSR sort gate)": "low polyreactivity"}
{"sequence": "QVQLVESGGGLVQAGGSLRLSCAASGSTFKPNAMGWYRQAPGKERELVAAITSGSTYYADSVKGRFTISRDNAKNTVYLQMNSLKPEDTAVYYCAVVTGSFRTRYTYYYWGQGTQVTVSS", "polyreactivity (PSR sort gate)": "high polyreactivity"}
{"sequence": "QVQLVESGGGLVQAGGSLRLSCAASGSTFKPYTMGWYRPAPGKERELVAAISSVDSTYYADSVKGRFTISRDNAKKTVYLQMNSLKPEDTAVYDCNKRKSPTFTYAMNYWGQGTQGTVSS", "polyreactivity (PSR sort gate)": "low polyreactivity"}
{"sequence": "QVQLVESGGGLVQAGGSLRLSCAASGSTFKRYAMGWYRQAPGKERALVASISSGGSTNYADSVKGRFTISRDNAKNTVYLQMHSLKPEDTAVYYCAVSYRSFRYYWERYYSWGQGTQVTVSS", "polyreactivity (PSR sort gate)": "high polyreactivity"}
